The values that follow come from paper PMC4022893.

Data set [1] is described as follows: 125I-FSH binding to CHO-hFSHR membranes ± Compound 5. The settings on record: glycan lost; control: glycosylated FSH (about 3-fold more binding with Compound 5).
The target of data set [2] is FSHR of the PathHunter FSHR β-arrestin assay cells (UniProt P23945). The data set can be described thus: split reporter (BiFC, NanoBiT); PathHunter FSHR β-arrestin recruitment assay (DiscoveRx 93-0517C2) in CHO cells; cells stimulated with FSH, Compound 5, both, or the βT60E mutant; recruited β-arrestin normalized to 100% for the maximum response of FSH. (Activated receptors often draw arrestin, which recruitment assays turn into a signal.)
Sequence of FSHR of the PathHunter FSHR β-arrestin assay cells (P23945 18-695): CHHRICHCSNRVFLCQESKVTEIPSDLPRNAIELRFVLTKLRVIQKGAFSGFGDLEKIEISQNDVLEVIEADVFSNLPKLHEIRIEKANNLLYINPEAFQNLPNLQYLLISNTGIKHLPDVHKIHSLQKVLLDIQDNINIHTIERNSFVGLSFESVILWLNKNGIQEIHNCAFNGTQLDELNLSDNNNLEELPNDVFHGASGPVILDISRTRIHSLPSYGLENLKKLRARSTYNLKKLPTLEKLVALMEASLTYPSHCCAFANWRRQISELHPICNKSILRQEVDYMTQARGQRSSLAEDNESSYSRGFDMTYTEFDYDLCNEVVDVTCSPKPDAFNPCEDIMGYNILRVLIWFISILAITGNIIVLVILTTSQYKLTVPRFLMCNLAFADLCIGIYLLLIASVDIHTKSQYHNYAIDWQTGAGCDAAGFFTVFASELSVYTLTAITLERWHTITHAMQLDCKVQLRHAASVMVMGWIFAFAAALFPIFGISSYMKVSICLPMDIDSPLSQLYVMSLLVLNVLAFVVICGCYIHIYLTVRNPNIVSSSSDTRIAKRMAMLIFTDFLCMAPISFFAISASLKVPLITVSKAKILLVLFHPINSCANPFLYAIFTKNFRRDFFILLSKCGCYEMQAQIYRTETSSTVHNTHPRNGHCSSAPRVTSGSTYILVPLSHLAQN

Sequence of β-arrestin of the PathHunter FSHR β-arrestin assay cells (P32121 whole entry): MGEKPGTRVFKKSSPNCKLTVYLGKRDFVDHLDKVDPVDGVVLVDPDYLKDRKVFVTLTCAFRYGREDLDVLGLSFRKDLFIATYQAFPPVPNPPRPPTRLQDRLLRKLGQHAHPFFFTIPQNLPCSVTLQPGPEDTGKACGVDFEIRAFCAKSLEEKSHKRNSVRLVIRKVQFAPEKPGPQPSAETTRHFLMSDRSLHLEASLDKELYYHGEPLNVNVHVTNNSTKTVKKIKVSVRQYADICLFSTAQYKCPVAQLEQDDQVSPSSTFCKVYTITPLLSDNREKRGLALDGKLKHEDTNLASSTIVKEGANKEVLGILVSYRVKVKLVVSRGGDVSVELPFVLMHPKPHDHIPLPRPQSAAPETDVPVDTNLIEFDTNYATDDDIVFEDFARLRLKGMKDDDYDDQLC
Sequence of FSH α-subunit: αN52D (chain, as listed by the source N52D): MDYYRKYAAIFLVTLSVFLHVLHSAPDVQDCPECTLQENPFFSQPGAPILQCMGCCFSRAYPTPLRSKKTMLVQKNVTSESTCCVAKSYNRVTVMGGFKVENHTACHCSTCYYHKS

Regarding FSH α-subunit: αN52D, the “other: Compound 5 enhancement of FSHR binding” value in data set [1] is recorded as “decreases”. For “β-arrestin of the PathHunter FSHR β-arrestin assay cells (from UniProt P32121 1-409) (natural protein)”, in data set [2], the β-arrestin recruited with Compound 5 plus FSH at EC100, percent of the maximum with FSH alone amounted to 280% and the β-arrestin recruited with FSH plus a high concentration of Compound 5, percent of the maximum with FSH alone is 280%.
